The text below walks through data of the supplement of paper PMC5998384.

The test system of series [1] is HeLa Kyoto. Kind of series: solubility in G1/S (NP-40 vs SDS abundance) (log2 ratio); higher = more soluble. Particulars: cell cycle stage: G1/S.
Series [2] deals with HeLa Kyoto. Kind of series: melting temperature (median over replicates), in situ; higher = more thermally stable.
Series [3] deals with HeLa Kyoto. Nature of the series: solubility change mitosis vs G1/S (difference of NP-40 vs SDS log2 ratios) (log2 ratio difference); higher = more soluble in mitosis.
The test system of series [4] is HeLa Kyoto. Nature of the series: thermal stability score vs G1/S (z-score of summed log2 fold changes over temperatures); higher = more thermally stable than in G1/S.
[5] abbreviates: cell cycle stage: early G1 (4.5 h after nocodazole release).
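For melting temperature (median over replicates), in situ in this document: HeLa Kyoto cells synchronized by double thymidine or nocodazole block, proteins quantified by TMT10plex mass spectrometry, three independent biological replicates.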
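For solubility change mitosis vs G1/S (difference of NP-40 vs SDS log2 ratios) in this document: synchronized HeLa Kyoto cells (double thymidine block for G1/S, nocodazole release for mitosis), protein amounts in NP-40 versus SDS lysates quantified by mass spectrometry, three biological replicates.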
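For solubility in G1/S (NP-40 vs SDS abundance) in this document: HeLa Kyoto cells arrested at G1/S by double thymidine block, proteins quantified by TMT10plex mass spectrometry in mild NP-40 versus SDS extracts, three biological replicates.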
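For thermal stability score vs G1/S (z-score of summed log2 fold changes over temperatures) in this document: synchronized HeLa Kyoto cells, proteins quantified by TMT10plex mass spectrometry, three biological replicates, mitosis taken 0.5 h after nocodazole release, G1/S directly after double thymidine block.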

As for “MVWDRQTKMEYEWKPDEQGLQQILQLLKESQSPDTTIQRTVQQKLEQLNQYPDFNNYLIFVLTKLKSEDEPTRSLSGLILKNNVKAHFQNFPNGVTDFIKSECLNNIGDSSPLIRATVGILITTIASKGELQNWPDLLPKLCSLLDSEDYNTCEGAFGALQKICEDSAEILDSDVLDRPLNIMIPKFLQFFKHSSPKIRSHAVACVNQFIISRTQALMLHIDSFIENLFALAGDEEPEVRKNVCRALVMLLEVRMDRLLPHMHNIVEYMLQRTQDQDENVALEACEFWLTLAEQPICKDVLVRHLPKLIPVLVNGMKYSDIDIILLKGDVEEDETIPDSEQDIRPRFHRSRTVAQQHDEDGIEEEDDDDDEIDDDDTISDWNLRKCSAAALDVLANVYRDELLPHILPLLKELLFHHEWVVKESGILVLGAIAEGCMQGMIPYLPELIPHLIQCLSDKKALVRSITCWTLSRYAHWVVSQPPDTYLKPLMTELLKRILDSNKRVQEAACSAFATLEEEACTELVPYLAYILDTLVFAFSKYQHKNLLILYDAIGTLADSVGHHLNKPEYIQMLMPPLIQKWNMLKDEDKDLFPLLECLSSVATALQSGFLPYCEPVYQRCVNLVQKTLAQAMLNNAQPDQYEAPDKDFMIVALDLLSGLAEGLGGNIEQLVARSNILTLMYQCMQDKMPEVRQSSFALLGDLTKACFQHVKPCIADFMPILGTNLNPEFISVCNNATWAIGEISIQMGIEMQPYIPMVLHQLVEIINRPNTPKTLLENTAITIGRLGYVCPQEVAPMLQQFIRPWCTSLRNIRDNEEKDSAFRGICTMISVNPSGVIQDFIFFCDAVASWINPKDDLRDMFCKILHGFKNQVGDENWRRFSDQFPLPLKERLAAFYGV [TNPO1]”, the “solubility in G1/S (log2)” value in the series with HeLa Kyoto [1] was -0.146. Besides, the melting temperature was 50.3 °C in the series on HeLa Kyoto [2] (cell cycle stage: G1/S) and 49.7 °C in the series with HeLa Kyoto [2] (cell cycle stage: mitosis). In the series with HeLa Kyoto [3], the “solubility change mitosis (log2)” value is -0.175. Moreover, the thermal stability score with HeLa Kyoto [4] (setting [5]) was 1.15; in the series with HeLa Kyoto [4] (cell cycle stage: mitosis), -1.3.
Turning to “MVWKVAVFLSVALGIGAVPIDDPEDGGKHWVVIVAGSNGWYNYRHQADACHAYQIIHRNGIPDEQIVVMMYDDIAYSEDNPTPGIVINRPNGTDVYQGVPKDYTGEDVTPQNFLAVLRGDAEAVKGIGSGKVLKSGPQDHVFIYFTDHGSTGILVFPNEDLHVKDLNETIHYMYKHKMYRKMVFYIEACESGSMMNHLPDNINVYATTAANPRESSYACYYDEKRSTYLGDWYSVNWMEDSDVEDLTKETLHKQYHLVKSHTNTSHVMQYGNKTISTMKVMQFQGMKRKASSPVPLPPVTHLDLTPSPDVPLTIMKRKLMNTNDLEESRQLTEEIQRHLDARHLIEKSVRKIVSLLAASEAEVEQLLSERAPLTGHSCYPEALLHFRTHCFNWHSPTYEYALRHLYVLVNLCEKPYPLHRIKLSMDHVCLGHY [LGMN]”, the “solubility in G1/S (log2)” value with HeLa Kyoto [1] worked out at 0.416. Besides, the melting temperature in the series on HeLa Kyoto [2] (cell cycle stage: G1/S) worked out at 53.8 °C; in the series on HeLa Kyoto [2] (cell cycle stage: mitosis), 54.2 °C. Moreover, the “solubility change mitosis (log2)” value in the series on HeLa Kyoto [3] was -0.0973. The thermal stability score in the series on HeLa Kyoto [4] (setting [5]) is 5.08; with HeLa Kyoto [4] (cell cycle stage: mitosis), 5.7.
For “MWIQVRTIDGSKTCTIEDVSRKATIEELRERVWALFDVRPECQRLFYRGKQLENGYTLFDYDVGLNDIIQLLVRPDPDHLPGTSTQIEAKPCSNSPPKVKKAPRVGPSNQPSTSARARLIDPGFGIYKVNELVDARDVGLGAWFEAHIHSVTRASDGQSRGKTPLKNGSSCKRTNGNIKHKSKENTNKLDSVPSTSNSDCVAADEDVIYHIQYDEYPESGTLEMNVKDLRPRARTILKWNELNVGDVVMVNYNVESPGQRGFWFDAEITTLKTISRTKKELRVKIFLGGSEGTLNDCKIISVDEIFKIERPGAHPLSFADGKFLRRNDPECDLCGGDPEKKCHSCSCRVCGGKHEPNMQLLCDECNVAYHIYCLNPPLDKVPEEEYWYCPSCKTDSSEVVKAGERLKMSKKKAKMPSASTESRRDWGRGMACVGRTRECTIVPSNHYGPIPGIPVGSTWRFRVQVSEAGVHRPHVGGIHGRSNDGAYSLVLAGGFADEVDRGDEFTYTGSGGKNLAGNKRIGAPSADQTLTNMNRALALNCDAPLDDKIGAESRNWRAGKPVRVIRSFKGRKISKYAPEEGNRYDGIYKVVKYWPEISSSHGFLVWRYLLRRDDVEPAPWTSEGIERSRRLCLRLQYPAGYPSDKEGKKPKGQSKKQPSGTTKRPISDDDCPSASKVYKASDSAEAIEAFQLTPQQQHLIREDCQNQKLWDEVLSHLVEGPNFLKKLEQSFMCVCCQELVYQPVTTECFHNVCKDCLQRSFKAQVFSCPACRHDLGQNYIMIPNEILQTLLDLFFPGYSKGR [UHRF2]”, in the series on HeLa Kyoto [1], the “solubility in G1/S (log2)” value is -0.401. Moreover, the melting temperature with HeLa Kyoto [2] (cell cycle stage: G1/S) is 44.3 °C; in the series on HeLa Kyoto [2] (cell cycle stage: mitosis), 46.9 °C. The “solubility change mitosis (log2)” value in the series with HeLa Kyoto [3] amounted to 0.175. Besides, the thermal stability score in the series on HeLa Kyoto [4] (setting [5]) was 2.81; with HeLa Kyoto [4] (cell cycle stage: mitosis), 4.34.
